Experimental data taken from patent publication US20150056222A1 (Regeneron, published 2015).
Changes are numbered by the printed parent chain. In names and notes the source's numbering stands.

T1: human prolactin receptor (PRLR) on cells (human, UniProt P16471 25-622)
T1 sequence: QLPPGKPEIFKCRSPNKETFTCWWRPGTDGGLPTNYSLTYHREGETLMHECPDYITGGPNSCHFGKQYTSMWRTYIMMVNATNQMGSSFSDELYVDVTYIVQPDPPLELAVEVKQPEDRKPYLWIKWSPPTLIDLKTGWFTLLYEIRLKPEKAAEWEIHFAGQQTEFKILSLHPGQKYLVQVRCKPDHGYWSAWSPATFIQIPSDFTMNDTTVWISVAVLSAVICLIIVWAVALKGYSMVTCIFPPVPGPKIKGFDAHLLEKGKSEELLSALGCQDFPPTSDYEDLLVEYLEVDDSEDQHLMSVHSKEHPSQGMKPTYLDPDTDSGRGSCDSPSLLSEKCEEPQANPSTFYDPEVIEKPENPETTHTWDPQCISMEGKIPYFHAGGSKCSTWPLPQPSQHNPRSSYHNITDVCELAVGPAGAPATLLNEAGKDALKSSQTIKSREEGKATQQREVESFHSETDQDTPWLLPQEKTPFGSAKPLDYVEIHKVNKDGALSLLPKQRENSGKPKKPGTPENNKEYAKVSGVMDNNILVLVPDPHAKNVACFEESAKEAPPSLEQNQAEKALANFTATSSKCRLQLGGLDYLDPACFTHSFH

T2: monkey (macaca fascicularis) PRLR on HEK293 cells (macaca fascicularis, UniProt A0A2K5WXK1 25-619)
T2 construct: also called mfPRLR; HEK293/mfPRLR
T2 sequence: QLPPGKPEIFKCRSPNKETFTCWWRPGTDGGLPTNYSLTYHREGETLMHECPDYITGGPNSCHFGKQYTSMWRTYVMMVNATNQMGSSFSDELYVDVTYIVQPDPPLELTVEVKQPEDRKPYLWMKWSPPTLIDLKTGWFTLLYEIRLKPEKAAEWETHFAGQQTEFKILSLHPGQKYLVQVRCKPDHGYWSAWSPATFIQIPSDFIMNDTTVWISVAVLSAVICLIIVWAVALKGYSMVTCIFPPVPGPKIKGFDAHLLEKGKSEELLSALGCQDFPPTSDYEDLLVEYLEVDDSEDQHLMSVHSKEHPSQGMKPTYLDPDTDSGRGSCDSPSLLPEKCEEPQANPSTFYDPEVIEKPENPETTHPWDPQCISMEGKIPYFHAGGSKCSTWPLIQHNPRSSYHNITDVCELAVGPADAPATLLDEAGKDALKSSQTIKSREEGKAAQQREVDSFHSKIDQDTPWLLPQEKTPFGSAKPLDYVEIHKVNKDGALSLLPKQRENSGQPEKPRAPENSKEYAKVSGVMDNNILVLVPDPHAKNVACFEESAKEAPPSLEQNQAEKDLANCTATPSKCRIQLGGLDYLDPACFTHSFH

T3: hPRLR.mmh (soluble monomeric human PRLR) (human)
T3 construct: soluble monomeric construct
T3 chain: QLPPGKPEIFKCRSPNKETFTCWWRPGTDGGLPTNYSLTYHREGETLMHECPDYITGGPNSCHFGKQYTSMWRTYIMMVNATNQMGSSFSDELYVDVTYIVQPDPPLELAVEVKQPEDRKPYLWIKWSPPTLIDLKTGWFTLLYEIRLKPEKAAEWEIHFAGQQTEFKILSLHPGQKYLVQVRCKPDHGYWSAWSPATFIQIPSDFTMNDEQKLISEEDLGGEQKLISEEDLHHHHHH

T4: mfPRLR.mmh (soluble monomeric macaca fascicularis PRLR) (macaca fascicularis)
T4 construct: soluble monomeric construct; also called macaca fascicularis (mf) PRLR.mmh
T4 chain: T3 chain with I76V, A110T, I125M, I158T, T207I

T5: hPRLR.mFc (soluble dimeric human PRLR) (human)
T5 construct: dimeric construct
T5 chain: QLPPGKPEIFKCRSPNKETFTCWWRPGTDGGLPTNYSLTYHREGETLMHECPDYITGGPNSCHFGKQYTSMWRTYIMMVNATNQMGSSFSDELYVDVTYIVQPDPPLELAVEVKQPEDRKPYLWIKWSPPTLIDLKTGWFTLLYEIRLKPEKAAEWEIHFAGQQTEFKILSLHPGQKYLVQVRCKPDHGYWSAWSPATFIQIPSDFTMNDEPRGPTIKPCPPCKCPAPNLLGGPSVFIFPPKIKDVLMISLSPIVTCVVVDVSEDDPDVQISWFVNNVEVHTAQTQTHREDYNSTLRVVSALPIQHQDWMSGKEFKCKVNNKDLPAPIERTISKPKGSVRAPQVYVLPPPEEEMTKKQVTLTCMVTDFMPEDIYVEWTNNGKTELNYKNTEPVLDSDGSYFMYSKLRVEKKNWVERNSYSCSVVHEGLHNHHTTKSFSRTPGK

T6: mouse PRLR on HEK293 cells (mouse, UniProt Q08501 20-608)
T6 construct: whole, on cells; also called mPRLR; HEK293/mPRLR
T6 sequence (looked up): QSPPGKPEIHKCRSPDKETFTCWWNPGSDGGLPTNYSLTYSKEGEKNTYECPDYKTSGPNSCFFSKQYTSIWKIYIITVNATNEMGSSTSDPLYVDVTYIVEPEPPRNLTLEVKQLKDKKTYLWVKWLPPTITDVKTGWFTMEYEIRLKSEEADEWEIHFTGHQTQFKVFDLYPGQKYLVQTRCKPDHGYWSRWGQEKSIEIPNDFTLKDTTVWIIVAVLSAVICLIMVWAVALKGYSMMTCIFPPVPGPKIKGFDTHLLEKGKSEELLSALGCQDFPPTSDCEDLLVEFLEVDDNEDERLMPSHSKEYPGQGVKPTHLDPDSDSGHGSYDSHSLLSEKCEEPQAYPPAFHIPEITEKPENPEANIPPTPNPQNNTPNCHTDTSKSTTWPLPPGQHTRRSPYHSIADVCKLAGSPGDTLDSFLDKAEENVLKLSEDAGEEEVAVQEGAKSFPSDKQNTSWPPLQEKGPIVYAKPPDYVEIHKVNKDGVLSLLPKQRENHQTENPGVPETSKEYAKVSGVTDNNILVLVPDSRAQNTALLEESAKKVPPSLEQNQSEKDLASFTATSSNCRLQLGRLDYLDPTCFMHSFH

B1: H1H6762P (antibody, human IgG1, V domains shown)
VH: QVQLVESGGGVVQPGRSLRLSCAASGFTFSHYGMVWVRQPPGKGLEWVALISFDGTTKYYADSVKGRFTISRDNSKNTLYLQMNSLRAEDTAVYFCVGAIAAAAFDLWGRGTLVTVSS
VL: EIVMTQSPATLSVSPGERATLSCRASQSVSSDLAWYQQKPGQAPRLLIYSASARATGIPARFTGSGSGTDFTLTISSLQSEDFAVYYCQQYNNWPMYTFGQGTKLEIK
notes: human IgG1 Fc (H1H)
B2: H1H6803P (antibody, human IgG1, V domains shown)
VH: EVQLVESGGGVVRPGGSLRLSCAASGFKFDDYGMTWVRHVPGKGLEWVSGINWNGGRTGYTDSVKGRFTISRDNAKNSLYLQMNSLRAEDTALYHCAGARRDAFDIWGQGTMVTVSS
VL: DIQMTQSPSSLSASIGDRVTITCRASQNIIKYLNWYQQNAGKAPKLLIYTASSLQSGVPSRFSGSGSGTDFTLTISSLQPEDFATYYCQQSSSSPYTFGQGTKLEIK
notes: human IgG1 Fc (H1H)
B3: H1H6800P (antibody, human IgG1, V domains shown)
VH: EVQLVESGGGLVQPGRSLRLSCAASGFTFDGYAMHWVRQGPGKGLEWVSGISWYSDTLGYADSVKGRFTISRDNAKNSLYLQMNSLRTEDTAFYYCAKISSSGWAFDYWGQGTLVTVSS
VL: EIVLTQSPGTLSLSPGERATLSCRASHSVSSAYLAWYQQKPGQTPRLLIYGTSSRATGIPDRFSGSGSGTDFTLTISRLEPEDFAVYYCQQYGSSPLFTFGPGTKVDIK
notes: human IgG1 Fc (H1H)
B4: H1H6959N2 (antibody, human IgG1, V domains shown)
VH: EVQLVESGGGLVQPGRSLRLSCAASGFTFDDYAMHWVRQAPGKGLEWVSGISWHSGIIGYADSVKGRFTISRDNAKNSLYLQMNSLRTEDAALYYCAKIGSYFYFDSWGQGTLVTVSS
VL: EIVLTQSPGTLSLSPGERATLSCRASQSVSSNYLAWYQQKPGQAPRLLIYGASSRATGIPDRFSGSGSGTDFTLTISRLEPEDFAVYYCQQFGSSGYTFGQGTNLEIK
notes: also called H2M6959N2
B5: H1H6975N (antibody, human IgG1, V domains shown)
VH: EVHLVESGGGLVQPGGSLRLSCAASGFTFSSYEMNWVRQTPGKGLEWISHISSRSVIIYYADSVKGRFTISRDNAKNSLFLQMNSLRAEDTAVYFCAGITIFGIPEYWGQGTLVTVSS
VL: EIVLTQSPATLSLSPGERATLSCRASQSVSSYFAWYQQKPGQAPRLLIYDASSRATGIPTRFSGSGSGTDFTLTISSLEPEDFAVYYCQQRSSWPITFGQGTRLEIK
notes: also called H2M6975N
B6: H1H6801P (antibody, human IgG1, V domains shown)
VH: QVQLQQSGPGLVKPSQTLSLTCVISGDSVSSNTAWNWVRQSPSRGLEWLGRTYYRSKWYNDYAVSVKSRITINPDTSKNQFSLLMNSVTPEDTAVYYCARVVRGLNYFDYWGQGTLVTVSS
VL: DIVMTQSPDSLAVSLGERATINCKSSQSVLYNSNNKNYLAWYQQKPGQPPKLLIYWSSSRESGVPDRFSGSGSGTDFTLTISGLQAEDVAIYYCQQYSTIPYTFGQGTKLEIK
notes: human IgG1 Fc (H1H)

Tests used:
[1] = molecular target: T1, human prolactin receptor (PRLR) on cells; assay: cell-based or functional assay
[2] = molecular target: T1, human prolactin receptor (PRLR) on cells; assay: FACS, HEK293/hPRLR cells; further: test concentration or dose not given here
[3] = molecular target: T2, monkey (macaca fascicularis) PRLR on …; assay: FACS, HEK293/mfPRLR cells; further: test concentration or dose not given here
[4] = molecular target: T3, hPRLR.mmh (soluble monomeric human PRLR); assay: SPR, 37C, mAb capture
Procedure: (§1) Measurements were conducted on a T200 Biacore instrument. Kinetic association (kₐ) and dissociation (kd) rate constants were determined by processing and fitting the data to a 1:1 binding model using Scrubber 2.0 curve fitting software. Binding dissociation equilibrium constants (KD) and dissociative half-lives (t_{1/2}) were calculated from the kinetic rate constants as: KD (M)=kd/kₐ; and […].

[5] = molecular target: T4, mfPRLR.mmh (soluble monomeric macaca …); assay: SPR, 37C, mAb capture
Procedure: as §1

[6] = molecular target: T5, hPRLR.mFc (soluble dimeric human PRLR); assay: SPR, 37C, mAb capture
Procedure: as §1

[7] = molecular target: T6, mouse PRLR on HEK293 cells; assay: FACS, HEK293/mPRLR cells; further: test concentration or dose not given here
[8] = molecular target: T1, human prolactin receptor (PRLR) on cells; assay: FACS, T47D cells (native PRLR); further: test concentration or dose not given here

Row | Binder | % Internalization relative to Control I (alexa488 intensity in intracellular vesicles at 37 C, T47D cells) [1] [%] | FACS Cell Binding (Fold Above Background) [2] [fold above background] | FACS Cell Binding (Fold Above Background) [3] [fold above background] | T½ [4] [min] | T½ [5] [min] | T½ [6] [min] | FACS Cell Binding (Fold Above Background) [7] [fold above background] | FACS Cell Binding (Fold Above Background) [8] [fold above background]
1 | B1 | 186 | 36 | 26 | 25 | 21 | 112 | 2 | 38
2 | B2 | 190 | 39 | 28 | 32 | 18 | 186 | 1 | 39
3 | B3 | 198 | 35 | 29 | 10 | 11 | 79 | 1 | 41
4 | B4 | 15.3 | 6 | 11 | 0.4 | – | 5 | 2 | 9
5 | B5 | 214 | 38 | 29 | 42.3 | 36.4 | 163 | 1 | 46
6 | B6 | 149 | 47 | 88 | 3 | 1 | 52 | – | 45
